{
  "source": "paper doi:10.1101/2023.03.27.534461",
  "about": "(bioRxiv, 2023)",
  "proteins": {"B1": {"name": "Bre1 591–700 (domain or fragment, yeast, UniProt Q07457 591-700, looked up)", "chain": "KLNDTEIELKHFKQKASHLESKCEKLHDTLFRGNNKNKGSSDEALVEELANFRTLVYCSLCSKNWKNMAIKTCGHVFCENCCKERLAARMRKCPTCNKAFSSNDLLTVHL", "notes": "Bre1, yeast E3 ubiquitin ligase, residues 591-700: coiled coil that mediates dimerization and RING domain; In the structure the two copies of Bre1(591-700) stood on one chain of the fusion m1, joined by a (GGS)4 linker; written here as a molecule of its own for the pairs Bre1 with H2A and Bre1 with Bre1; also called Bre1-A; Bre1-B; source: E. coli BL21(DE3)Rosetta2, purified, as part of the …"}},
  "target": "the molecule itself",
  "experiment": "cryo-EM structure; 100 nM unmodified nucleosome with 10 μM Bre1-Bre1-Rad6 fusion protein, 20 mM HEPES pH 7.5, 50 mM NaCl, 1 mM DTT, room temperature 30 min; cross-linked with glutaraldehyde, then Superdex 200; three states resolved",
  "data": [
    {"protein": "B1", "values": [
      {"measurement": "binding result", "value": "binds"}
    ]}
  ]
}
